These results are taken from the supplement of paper PMC9112550, “Optimization of the antimicrobial peptide Bac7 by deep mutational scanning” (BMC Biology, 2022).

The data set concerns Escherichia coli TOP10. The data set is described as follows: shrunken log2 fold change of peptide-encoding DNA abundance (4.5 h post-induction vs induction); higher = less antimicrobial activity (less host growth inhibition). To be noted: time post-induction: 4.5 h; library: site-saturation at positions 5, 18, 19, 20.
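Note: peptides expressed intracellularly from a pBAD plasmid library in pooled LB shake-flask culture, induced with 0.3% L-arabinose, DNA abundance read by NGS, three biological replicates, DESeq2 with apeglm shrinkage.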

As to RRIRRRPPRLPRPRPRPRVVPRP, the “shrunken log2 fold change” value is 0.215.

For RRIRPRPPRLPRPRPRPSDRPRP, the “shrunken log2 fold change” value is -0.00705. On to RRIRLRPPRLPRPRPRPRGRPRP, for which the “shrunken log2 fold change” value amounted to 0.149.

Consider RRIRKRPPRLPRPRPRPPMDPRP, for which the “shrunken log2 fold change” value was determined as 0.587. Then RRIRERPPRLPRPRPRPCDMPRP, with -0.0119; and RRIRWRPPRLPRPRPRPHEWPRP, with 0.0987. With RRIRARPPRLPRPRPRPKCKPRP, the “shrunken log2 fold change” value amounted to 0.278. Turning to RRIRMRPPRLPRPRPRPDTSPRP, the “shrunken log2 fold change” value was 1.47. As to RRIRSRPPRLPRPRPRPYEDPRP, the “shrunken log2 fold change” value was -0.129. For the sequence RRIRDRPPRLPRPRPRPGFMPRP, the “shrunken log2 fold change” value stood at 0.219. Consider RRIRRRPPRLPRPRPRPVNQPRP, for which the “shrunken log2 fold change” value amounted to 0.129. As to RRIRDRPPRLPRPRPRPWLTPRP, the “shrunken log2 fold change” value was -0.0223. Take RRIRVRPPRLPRPRPRPIIPPRP: the “shrunken log2 fold change” value was -0.36. As to RRIRMRPPRLPRPRPRPDIAPRP, the “shrunken log2 fold change” value was 0.0562. As for RRIRRRPPRLPRPRPRPFSHPRP, the “shrunken log2 fold change” value is -0.0121.

Turning to RRIRHRPPRLPRPRPRPSCYPRP, the “shrunken log2 fold change” value is -1.1. In the case of RRIRLRPPRLPRPRPRPTCAPRP, the “shrunken log2 fold change” value came out at 0.314. Turning to RRIRERPPRLPRPRPRPPIQPRP, the “shrunken log2 fold change” value is -0.27. As to RRIRQRPPRLPRPRPRPYRFPRP, the “shrunken log2 fold change” value stood at 0.0797. Then RRIRARPPRLPRPRPRPSCMPRP, with 0.29. With RRIRCRPPRLPRPRPRPIAMPRP, the “shrunken log2 fold change” value was -0.0964.

As for RRIRTRPPRLPRPRPRPTVGPRP, the “shrunken log2 fold change” value is 0.155. RRIRARPPRLPRPRPRPEDLPRP: the “shrunken log2 fold change” value worked out at 0.0217. As for RRIRCRPPRLPRPRPRPMMLPRP, the “shrunken log2 fold change” value is -0.117. With RRIRCRPPRLPRPRPRPHVWPRP, the “shrunken log2 fold change” value was -0.185. For the sequence RRIRPRPPRLPRPRPRPDGCPRP, the “shrunken log2 fold change” value is -0.228. For RRIRHRPPRLPRPRPRPSERPRP, the “shrunken log2 fold change” value was -0.0252. As for RRIRLRPPRLPRPRPRPWCYPRP, the “shrunken log2 fold change” value was -0.489. With RRIRKRPPRLPRPRPRPFTHPRP the figure was 0.0159; with RRIRERPPRLPRPRPRPGQFPRP, -0.295. With RRIRMRPPRLPRPRPRPGREPRP the figure was 1.02; with RRIRARPPRLPRPRPRPEWPPRP, 0.591; with RRIRPRPPRLPRPRPRPMIQPRP, 0.0205.

RRIRPRPPRLPRPRPRPVRCPRP: the “shrunken log2 fold change” value worked out at 0.545. With RRIRHRPPRLPRPRPRPKMRPRP the figure was 0.312; with RRIRGRPPRLPRPRPRPQATPRP, 1.2; with RRIRHRPPRLPRPRPRPMNVPRP, -0.0594. RRIRKRPPRLPRPRPRPSGAPRP: the “shrunken log2 fold change” value was determined as 0.539. For the sequence RRIRSRPPRLPRPRPRPKLKPRP, the “shrunken log2 fold change” value came out at 0.149.

Take RRIRDRPPRLPRPRPRPCCRPRP: the “shrunken log2 fold change” value is -0.197.

For the sequence RRIRWRPPRLPRPRPRPWVWPRP, the “shrunken log2 fold change” value turned out to be 0.0506. RRIRGRPPRLPRPRPRPQGEPRP: the “shrunken log2 fold change” value was determined as 0.327. On to RRIRQRPPRLPRPRPRPNFAPRP, for which the “shrunken log2 fold change” value came to 0.24.

For the sequence RRIRHRPPRLPRPRPRPLKTPRP, the “shrunken log2 fold change” value is 0.0116. With RRIRIRPPRLPRPRPRPEIPPRP, the “shrunken log2 fold change” value was -0.0249.

As to RRIRYRPPRLPRPRPRPNYQPRP, the “shrunken log2 fold change” value was -0.79. Then RRIRSRPPRLPRPRPRPKTVPRP, with 0.0369; and RRIRARPPRLPRPRPRPGLHPRP, with 0.275. Turning to RRIRLRPPRLPRPRPRPLSIPRP, the “shrunken log2 fold change” value was -0.722. Then RRIRWRPPRLPRPRPRPVRQPRP, with 0.161; and RRIRHRPPRLPRPRPRPLTRPRP, with 0.0261. RRIRNRPPRLPRPRPRPWSQPRP: the “shrunken log2 fold change” value was -0.0539.

For RRIRVRPPRLPRPRPRPPSFPRP, the “shrunken log2 fold change” value was 0.0364.

For the sequence RRIRCRPPRLPRPRPRPVTYPRP, the “shrunken log2 fold change” value turned out to be 0.0559.

Turning to RRIRNRPPRLPRPRPRPFTQPRP, the “shrunken log2 fold change” value was -0.348.

As for RRIRYRPPRLPRPRPRPFAGPRP, the “shrunken log2 fold change” value is 4.12.

Turning to RRIRVRPPRLPRPRPRPFYDPRP, the “shrunken log2 fold change” value was -0.0104. RRIRDRPPRLPRPRPRPMGCPRP: the “shrunken log2 fold change” value is -0.000921. Take RRIRFRPPRLPRPRPRPVDFPRP: the “shrunken log2 fold change” value was -0.452.

For RRIRCRPPRLPRPRPRPKYRPRP, the “shrunken log2 fold change” value is -0.326.

Turning to RRIRLRPPRLPRPRPRPGQRPRP, the “shrunken log2 fold change” value came to 0.0889. With RRIRPRPPRLPRPRPRPLIWPRP, the “shrunken log2 fold change” value was determined as 0.0601. For RRIRARPPRLPRPRPRPYNNPRP, the “shrunken log2 fold change” value is -0.817.

RRIRGRPPRLPRPRPRPWDQPRP: the “shrunken log2 fold change” value was 0.432. For the sequence RRIRYRPPRLPRPRPRPEFGPRP, the “shrunken log2 fold change” value was 0.113. Then RRIRNRPPRLPRPRPRPRVFPRP, with -0.036; and RRIRLRPPRLPRPRPRPLDQPRP, with 0.105; and RRIRKRPPRLPRPRPRPIWDPRP, with -0.0152. For the sequence RRIRKRPPRLPRPRPRPVMPPRP, the “shrunken log2 fold change” value amounted to 0.244. Then RRIRRRPPRLPRPRPRPQSCPRP, with 0.107. Then RRIRNRPPRLPRPRPRPQIRPRP, with -0.0373; and RRIRLRPPRLPRPRPRPMQLPRP, with -0.21. For RRIRVRPPRLPRPRPRPPKKPRP, the “shrunken log2 fold change” value came to 0.167. As for RRIRPRPPRLPRPRPRPEVLPRP, the “shrunken log2 fold change” value was -0.204. With RRIRGRPPRLPRPRPRPSDVPRP, the “shrunken log2 fold change” value was found to be 0.0304. With RRIRNRPPRLPRPRPRPMHRPRP the figure was -0.0926; with RRIRSRPPRLPRPRPRPQNEPRP, -0.0107; with RRIRERPPRLPRPRPRPCVSPRP, -0.0843. Regarding RRIRNRPPRLPRPRPRPWFRPRP, the “shrunken log2 fold change” value was 0.0475. For RRIRGRPPRLPRPRPRPKKGPRP, the “shrunken log2 fold change” value worked out at 0.765. For RRIRNRPPRLPRPRPRPQQEPRP, the “shrunken log2 fold change” value was -0.124. With RRIRARPPRLPRPRPRPEQCPRP, the “shrunken log2 fold change” value is 0.42. As to RRIRIRPPRLPRPRPRPPMKPRP, the “shrunken log2 fold change” value was -0.789.

For RRIRKRPPRLPRPRPRPNYTPRP, the “shrunken log2 fold change” value was -0.281. Consider RRIRIRPPRLPRPRPRPMRRPRP, for which the “shrunken log2 fold change” value turned out to be 0.0307. With RRIRYRPPRLPRPRPRPHQKPRP the figure was -0.248. For the sequence RRIRDRPPRLPRPRPRPYVEPRP, the “shrunken log2 fold change” value is -0.125.

Regarding RRIRSRPPRLPRPRPRPYDNPRP, the “shrunken log2 fold change” value is -0.0962. Then RRIRYRPPRLPRPRPRPKDRPRP, with -0.109.

In the case of RRIRQRPPRLPRPRPRPKELPRP, the “shrunken log2 fold change” value is -0.534. Consider RRIRYRPPRLPRPRPRPQCEPRP, for which the “shrunken log2 fold change” value was -0.0652.

Consider RRIRVRPPRLPRPRPRPLAFPRP, for which the “shrunken log2 fold change” value was -0.221.

With RRIRLRPPRLPRPRPRPVKRPRP, the “shrunken log2 fold change” value worked out at 0.0647.

With RRIRRRPPRLPRPRPRPDMLPRP, the “shrunken log2 fold change” value is -0.0772.

For the sequence RRIRQRPPRLPRPRPRPGSRPRP, the “shrunken log2 fold change” value amounted to 0.166. Turning to RRIRLRPPRLPRPRPRPRQRPRP, the “shrunken log2 fold change” value turned out to be 0.892. Take RRIRPRPPRLPRPRPRPDPLPRP: the “shrunken log2 fold change” value was -0.379. For the sequence RRIRSRPPRLPRPRPRPFFQPRP, the “shrunken log2 fold change” value was -0.105. Take RRIRVRPPRLPRPRPRPSGMPRP: the “shrunken log2 fold change” value is 0.489. For RRIRCRPPRLPRPRPRPRRVPRP, the “shrunken log2 fold change” value came to 0.342. As for RRIRSRPPRLPRPRPRPRLSPRP, the “shrunken log2 fold change” value came out at 0.00425. With RRIRCRPPRLPRPRPRPELWPRP the figure was 0.732.

On to RRIRFRPPRLPRPRPRPVRCPRP, for which the “shrunken log2 fold change” value turned out to be 0.308. Then RRIRQRPPRLPRPRPRPVCFPRP, with -0.139; and RRIRVRPPRLPRPRPRPITYPRP, with -0.911. In the case of RRIRIRPPRLPRPRPRPLKSPRP, the “shrunken log2 fold change” value was -0.325. Turning to RRIRTRPPRLPRPRPRPVAWPRP, the “shrunken log2 fold change” value was 0.217. RRIRKRPPRLPRPRPRPSWTPRP: the “shrunken log2 fold change” value was -0.0691. Regarding RRIRARPPRLPRPRPRPRQQPRP, the “shrunken log2 fold change” value is 0.277. As to RRIRSRPPRLPRPRPRPLLVPRP, the “shrunken log2 fold change” value is 0.0795. Regarding RRIRGRPPRLPRPRPRPRQTPRP, the “shrunken log2 fold change” value was -0.144. Take RRIRSRPPRLPRPRPRPYGAPRP: the “shrunken log2 fold change” value is -0.318.

In the case of RRIRFRPPRLPRPRPRPTMNPRP, the “shrunken log2 fold change” value is -0.511. For RRIRWRPPRLPRPRPRPAVAPRP, the “shrunken log2 fold change” value was 0.544. For RRIRFRPPRLPRPRPRPDLKPRP, the “shrunken log2 fold change” value worked out at 0.166. In the case of RRIRERPPRLPRPRPRPGIVPRP, the “shrunken log2 fold change” value was -0.113. Then RRIRFRPPRLPRPRPRPMVDPRP, with -0.304; and RRIRIRPPRLPRPRPRPYMPPRP, with -1.27; and RRIRRRPPRLPRPRPRPVWVPRP, with 0.566. For the sequence RRIRTRPPRLPRPRPRPITWPRP, the “shrunken log2 fold change” value was -0.252. With RRIRTRPPRLPRPRPRPGWWPRP the figure was 0.158. As for RRIRWRPPRLPRPRPRPHTKPRP, the “shrunken log2 fold change” value was determined as 0.0624. RRIRMRPPRLPRPRPRPTHYPRP: the “shrunken log2 fold change” value turned out to be 0.226.

RRIRGRPPRLPRPRPRPSAWPRP: the “shrunken log2 fold change” value stood at 1.94. For the sequence RRIRMRPPRLPRPRPRPSKCPRP, the “shrunken log2 fold change” value was -0.0848.
